Reference: the supplement of paper PMC11246515
± gives the standard deviation of the averaged measurements.

Assay: total protein half-life in vivo (active degradation + dilution); higher = more stable protein
[1] = E. coli NCM3722 delta-clpP delta-lon delta-hslV, growth: N-lim chemostat, doubling time 6 h
[2] = E. coli NCM3722 delta-hslV, growth: N-lim chemostat, doubling time 6 h
[3] = E. coli NCM3722 delta-lon, growth: N-lim chemostat, doubling time 6 h
[4] = E. coli NCM3722 delta-smpB, growth: N-lim chemostat, doubling time 6 h
[5] = wild type E. coli NCM3722, growth: C-lim chemostat, doubling time 3 h
[6] = wild type E. coli NCM3722, growth: C-lim chemostat, doubling time 6 h
[7] = wild type E. coli NCM3722, growth: C-lim chemostat, doubling time 12 h
[8] = wild type E. coli NCM3722, growth: N-lim chemostat, doubling time 6 h
[9] = wild type E. coli NCM3722, growth: N-lim chemostat, doubling time 12 h
[10] = wild type E. coli NCM3722, growth: P-lim chemostat, doubling time 6 h
[11] = wild type E. coli NCM3722, growth: P-lim chemostat, doubling time 12 h
[12] = E. coli NCM3722 delta-clpP, growth: N-lim chemostat, doubling time 6 h

MRQKETTATTRFSLLPGSITRFFLLLIIVLLVTMGVMVQSAVNAWLKDKSYQIVDITHAIQKRVDNWRYVTWQIYDNIAATTSPSSGEGLQETRLKQDVYYLEKPRRKTEALIFGSHDNSTLEMTQRMSTYLDTLWGAENVPWSMYYLNGQDNSLVLISTLPLKDLTSGFKESTVSDIVDSRRAEMLQQANALDERESFSNMRRLAWQNGHYFTLRTTFNQPGHLATVVAFDLPINDLIPPGMPLDSFRLEPDATATGNNDNEKEGTDSVSIHFNSTKIEISSALNSTDMRLVWQVPYGTLLLDTLQNILLPLLLNIGLLALALFGYTTFRHFSSRSTENVPSTAVNNELRILRAINEEIVSLLPLGLLVHDQESNRTVISNKIADHLLPHLNLQNITTMAEQHQGIIQATINNELYEIRMFRSQVAPRTQIFIIRDQDREVLVNKKLKQAQRLYEKNQQGRMIFMKNIGDALKEPAQSLAESAAKLNAPESKQLANQADVLVRLVDEIQLANMLADDSWKSETVLFSVQDLIDEVVPSVLPAIKRKGLQLLINNHLKAHDMRRGDRDALRRILLLLMQYAVTSTQLGKITLEVDQDESSEDRLTFRILDTGEGVSIHEMDNLHFPFINQTQNDRYGKADPLAFWLSDQLARKLGGHLNIKTRDGLGTRYSVHIKMLAADPEVEEEEERLLDDVCVMVDVTSAEIRNIVTRQLENWGATCITPDERLISQDYDIFLTDNPSNLTASGLLLSDDESGVREIGPGQLCVNFNMSNAMQEAVLQLIEVQLAQEEVTESPLGGDENAQLHASGYYALFVDTVPDDVKRLYTEAATSDFAALAQTAHRLKGVFAMLNLVPGKQLCETLEHLIREKDVPGIEKYISDIDSYVKSLL
total protein half-life in vivo [1]: 6.226 ± 0.058 h | total protein half-life in vivo [2]: 6.72 ± 0.27 h | total protein half-life in vivo [3]: 6.86 ± 0.49 h | total protein half-life in vivo [4]: 6.32 ± 0.7 h | total protein half-life in vivo [5]: 3.25 ± 0.077 h | total protein half-life in vivo [6]: 6.3 ± 0.57 h | total protein half-life in vivo [7]: 11.13 ± 0.09 h | total protein half-life in vivo [8]: 6.21 ± 0.15 h | total protein half-life in vivo [9]: 12.6 ± 0.92 h | total protein half-life in vivo [10]: 7 ± 0.88 h | total protein half-life in vivo [11]: 12.9 ± 0.27 h

MRQVLSSLLVIAGLVSGQAIAAPESPPHADIRDSGFVYCVSGQVNTFNPSKASSGLIVDTLAAQFYDRLLDVDPYTYRLMPELAESWEVLDNGATYRFHLRRDVPFQKTDWFTPTRKMNADDVVFTFQRIFDRNNPWHNVNGSNFPYFDSLQFADNVKSVRKLDNHTVEFRLAQPDASFLWHLATHYASVMSAEYARKLEKEDRQEQLDRQPVGTGPYQLSEYRAGQFIRLQRHDDFWRGKPLMPQVVVDLGSGGTGRLSKLLTGECDVLAWPAASQLSILRDDPRLRLTLRPGMNVAYLAFNTAKPPLNNPAVRHALALAINNQRLMQSIYYGTAETAASILPRASWAYDNEAKITEYNPAKSREQLKSLGLENLTLKLWVPTRSQAWNPSPLKTAELIQADMAQVGVKVVIVPVEGRFQEARLMDMSHDLTLSGWATDSNDPDSFFRPLLSCAAIHSQTNLAHWCDPKFDSVLRKALSSQQLAARIEAYDEAQSILAQELPILPLASSLRLQAYRYDIKGLVLSPFGNASFAGVYREKQDEVKKP
total protein half-life in vivo [2]: 6.48 ± 0.7 h | total protein half-life in vivo [3]: 6.22 ± 0.64 h | total protein half-life in vivo [4]: 5.939 ± 0.032 h | total protein half-life in vivo [5]: 3.129 ± 0.013 h | total protein half-life in vivo [6]: 5.88 ± 0.23 h | total protein half-life in vivo [7]: 11.05 ± 0.028 h | total protein half-life in vivo [8]: 6.39 ± 0.57 h | total protein half-life in vivo [9]: 13.5 ± 0.91 h | total protein half-life in vivo [10]: 6.18 ± 0.2 h | total protein half-life in vivo [11]: 12 ± 1.2 h

MRRLLSVAPVLLWLITPLAFAQLPGITSQPLPGGGQSWSLPVQTLVFITSLTFIPAILLMMTSFTRIIIVFGLLRNALGTPSAPPNQVLLGLALFLTFFIMSPVIDKIYVDAYQPFSEEKISMQEALEKGAQPLREFMLRQTREADLGLFARLANTGPLQGPEAVPMRILLPAYVTSELKTAFQIGFTIFIPFLIIDLVIASVLMALGMMMVPPATIALPFKLMLFVLVDGWQLLVGSLAQSFYS [P0AC05]
total protein half-life in vivo [5]: 2.76 h | total protein half-life in vivo [6]: 6.05 h | total protein half-life in vivo [7]: 9.42 h

MRRLRFSPRSSFARTLLLIVTLLFASLVTTYLVVLNFAILPSLQQFNKVLAYEVRMLMTDKLQLEDGTQLVVPPAFRREIYRELGISLYSNEAAEEAGLRWAQHYEFLSHQMAQQLGGPTEVRVEVNKSSPVVWLKTWLSPNIWVRVPLTEIHQGDFSPLFRYTLAIMLLAIGGAWLFIRIQNRPLVDLEHAALQVGKGIIPPPLREYGASEVRSVTRAFNHMAAGVKQLADDRTLLMAGVSHDLRTPLTRIRLATEMMSEQDGYLAESINKDIEECNAIIEQFIDYLRTGQEMPMEMADLNAVLGEVIAAESGYEREIETALYPGSIEVKMHPLSIKRAVANMVVNAARYGNGWIKVSSGTEPNRAWFQVEDDGPGIAPEQRKHLFQPFVRGDSARTISGTGLGLAIVQRIVDNHNGMLELGTSERGGLSIRAWLPVPVTRAQGTTKEG [P0AEJ4]
total protein half-life in vivo [1]: 6.372 ± 0.049 h | total protein half-life in vivo [12]: 7.33 ± 0.82 h | total protein half-life in vivo [2]: 6.19 ± 0.26 h | total protein half-life in vivo [3]: 6.19 ± 0.32 h | total protein half-life in vivo [4]: 6.14 ± 0.39 h | total protein half-life in vivo [5]: 3.2 ± 0.14 h | total protein half-life in vivo [6]: 6.16 ± 0.14 h | total protein half-life in vivo [8]: 6.35 ± 0.27 h | total protein half-life in vivo [9]: 13.1 ± 0.43 h | total protein half-life in vivo [10]: 6.87 ± 0.93 h | total protein half-life in vivo [11]: 14.12 ± 0.043 h

MRRTFIKKEGVVITTLARYLLGEKCGNRLKTIDELANECRSSVGLTQAALKTLESSGAIRIERRGRNGSYLVEMDNKALLTHVDINNVVCAMPLPYTRLYEGLASGLKAQFDGIPFYYAHMRGADIRVECLLNGVYDMAVVSRLAAESYLTQKGLCLALELGPHTYVGEHQLICRKGESANVKRVGLDNRSADQKIMTDVFFGGSDVERVDLSYHESLQRIVKGDVDAVIWNVVAENELTMLGLEATPLTDDPRFLQATEAVVLTRVDDYPMQQLLRAVVDKHALLAHQQRVVSGEQEPSY
total protein half-life in vivo [1]: 6.2 ± 0.085 h | total protein half-life in vivo [12]: 5.94 ± 0.07 h | total protein half-life in vivo [2]: 5.34 ± 0.15 h | total protein half-life in vivo [3]: 5.75 ± 0.52 h | total protein half-life in vivo [4]: 4.78 ± 0.41 h | total protein half-life in vivo [5]: 2.78 ± 0.093 h | total protein half-life in vivo [6]: 5.3 ± 0.1 h | total protein half-life in vivo [7]: 7.63 ± 2.6 h | total protein half-life in vivo [8]: 4.68 ± 0.65 h | total protein half-life in vivo [9]: 9.45 ± 0.82 h | total protein half-life in vivo [10]: 5.166 ± 0.0084 h | total protein half-life in vivo [11]: 9.42 ± 0.63 h

MRRTFTAEEKASVFELWKNGTGFSEIANILGSKPGTIFTMLRDTGGIKPHERKRAVAHLTLSEREEIRAGLSAKMSIRAIATALNRSPSTISREVQRNRGRRYYKAVDANNRANRMAKRPKPCLLDQNLPLRKLVLEKLEMKWSPEQISGWLRRTKPRQKTLRISPETIYKTLYFRSREALHHLNIQHLRRSHSLRHGRRHTRKGERGTINIVNGTPIHERSRNIDNRRSLGHWEGDLVSGTKNSHIATLVDRKSRYTIILRLRGKDSVSVNQALTDKFLSLPSELRKSLTWDRGMELARHLEFTVSTGVKVYFCDPQSPWQRGTNENTNGLIRQYFPKKTCLAQYTQHELDLVAAQLNNRPRKTLKFKTPKEIIERGVALTD [P0CF90]
total protein half-life in vivo [1]: 5.45 ± 0.8 h

MRSKYIVIEGLEGAGKTTARNVVVETLEQLGIRDMVFTREPGGTQLAEKLRSLVLDIKSVGDEVITDKAEVLMFYAARVQLVETVIKPALANGTWVIGDRHDLSTQAYQGGGRGIDQHMLATLRDAVLGDFRPDLTLYLDVTPEVGLKRARARGELDRIEQESFDFFNRTRARYLELAAQDKSIHTIDATQPLEAVMDAIRTTVTHWVKELDA [P0A720]
total protein half-life in vivo [1]: 4.32 ± 0.51 h | total protein half-life in vivo [12]: 4 ± 0.41 h | total protein half-life in vivo [2]: 4.4 ± 0.41 h | total protein half-life in vivo [3]: 4.52 ± 0.32 h | total protein half-life in vivo [4]: 4.25 ± 0.13 h | total protein half-life in vivo [5]: 3.059 ± 0.011 h | total protein half-life in vivo [6]: 5.11 ± 0.073 h | total protein half-life in vivo [7]: 9.9341 ± 0.0012 h | total protein half-life in vivo [8]: 3.93 ± 0.26 h | total protein half-life in vivo [9]: 6.63 ± 0.1 h | total protein half-life in vivo [10]: 5.59 ± 0.5 h | total protein half-life in vivo [11]: 11.3 ± 0.12 h

MRSLADFEFNKAPLCEGMILACEAIRRDFPSQDVYDELERLVSLAKEEISQLLPLEEQLEKLIALFYGDWGFKASRGVYRLSDALWLDQVLKNRQGSAVSLGAVLLWVANRLDLPLLPVIFPTQLILRIECPDGEIWLINPFNGESLSEHMLDVWLKGNISPSAELFYEDLDEADNIEVIRKLLDTLKASLMEENQMELALRTSEALLQFNPEDPYEIRDRGLIYAQLDCEHVALNDLSYFVEQCPEDPISEMIRAQINNIAHKHIVLH [P0AGM5]
total protein half-life in vivo [5]: 0.281 h

MRSPICHLFSAINSSPFKIAPEKEQDLKTIVDDKKIIISVVSEPGFNIRVRKNESNNSHEIVLTVASLEYIWAFSNFFWVFTQEYSKSQKNNDEHFDLTGKNRLKKSDELLKWARKNLQTTGCESWPKKCPKPEAYLQGSEDSQVASEIFLCAIAWILHHEISHVVLQHPLVTTAFSTQEEREADSHATKWILGNLYESAPELKKRALGIATAVLCIQSLEVENYFCLQNTHPAAYERIYSNISCYPVGNEELIEALCTVMLQYLFHGKNINVNLDGESFSSILGDLLCDISRLTSN
total protein half-life in vivo [1]: 4.49 ± 0.37 h | total protein half-life in vivo [4]: 1.26 h
